By Kd is commonly meant the free concentration of one partner at which half of the binding sites on the other are occupied at equilibrium, for simple one-to-one binding. Higher therefore signals lower affinity.

Numbering of substitutions follows the chain as printed. Numbers in names are those of the source. Bounds are passed on as bounds.

Holding throughout (test): fluorescence polarisation
A general note: In fluorescence polarisation assays a small probe gives low polarisation when free and higher when bound to something large.

The target in assay [1] is eIF1-TAMRA (S. cerevisiae) (UniProt P32911).
The next assay addresses eIF4B-Fl (S. cerevisiae) (UniProt P34167).
Assay [2] concerns the target eIF5-TAMRA (S. cerevisiae) (UniProt P38431).
Assay [3] addresses T1, eIF4G1 (yeast eIF4G, wild type) (S. cerevisiae, UniProt P39935 1-952).
T1 sequence (looked up): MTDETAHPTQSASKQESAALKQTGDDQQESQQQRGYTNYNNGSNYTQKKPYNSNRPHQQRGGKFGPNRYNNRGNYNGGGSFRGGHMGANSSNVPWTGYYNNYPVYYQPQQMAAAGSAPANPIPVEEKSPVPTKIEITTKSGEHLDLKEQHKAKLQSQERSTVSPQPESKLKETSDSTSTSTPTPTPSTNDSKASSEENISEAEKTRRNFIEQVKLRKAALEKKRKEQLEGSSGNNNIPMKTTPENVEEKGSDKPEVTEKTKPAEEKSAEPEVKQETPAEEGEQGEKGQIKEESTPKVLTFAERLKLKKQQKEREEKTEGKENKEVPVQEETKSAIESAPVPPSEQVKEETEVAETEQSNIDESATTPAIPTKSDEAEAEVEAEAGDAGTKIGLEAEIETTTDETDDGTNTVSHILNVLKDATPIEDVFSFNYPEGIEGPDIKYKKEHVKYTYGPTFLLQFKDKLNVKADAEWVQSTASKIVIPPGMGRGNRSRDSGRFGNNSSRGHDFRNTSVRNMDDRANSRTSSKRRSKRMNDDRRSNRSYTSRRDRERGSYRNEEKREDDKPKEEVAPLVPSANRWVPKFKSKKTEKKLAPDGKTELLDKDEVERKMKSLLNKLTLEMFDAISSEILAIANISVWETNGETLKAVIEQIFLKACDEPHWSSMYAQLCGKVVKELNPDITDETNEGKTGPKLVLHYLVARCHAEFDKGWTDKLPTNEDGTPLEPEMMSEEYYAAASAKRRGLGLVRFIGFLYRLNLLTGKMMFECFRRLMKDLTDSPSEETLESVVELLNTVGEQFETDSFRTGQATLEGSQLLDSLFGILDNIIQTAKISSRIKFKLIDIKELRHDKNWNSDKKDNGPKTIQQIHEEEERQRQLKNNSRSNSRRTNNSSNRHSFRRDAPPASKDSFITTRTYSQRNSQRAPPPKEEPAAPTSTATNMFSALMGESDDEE

A further assay addresses T2, eIF4E•eIF4G complex (S. cerevisiae, UniProt P07260 1-213; P39935 1-952).
T2 sequence (looked up) 1: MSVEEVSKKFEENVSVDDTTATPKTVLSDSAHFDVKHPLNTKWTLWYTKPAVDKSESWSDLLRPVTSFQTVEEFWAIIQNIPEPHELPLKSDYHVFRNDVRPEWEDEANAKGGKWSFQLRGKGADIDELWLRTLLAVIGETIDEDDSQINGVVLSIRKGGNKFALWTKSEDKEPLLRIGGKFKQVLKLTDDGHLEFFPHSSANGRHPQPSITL
T2 sequence (looked up) 2: T1 sequence (looked up)

Sequence of eIF5-TAMRA (S. cerevisiae) (P38431 whole entry): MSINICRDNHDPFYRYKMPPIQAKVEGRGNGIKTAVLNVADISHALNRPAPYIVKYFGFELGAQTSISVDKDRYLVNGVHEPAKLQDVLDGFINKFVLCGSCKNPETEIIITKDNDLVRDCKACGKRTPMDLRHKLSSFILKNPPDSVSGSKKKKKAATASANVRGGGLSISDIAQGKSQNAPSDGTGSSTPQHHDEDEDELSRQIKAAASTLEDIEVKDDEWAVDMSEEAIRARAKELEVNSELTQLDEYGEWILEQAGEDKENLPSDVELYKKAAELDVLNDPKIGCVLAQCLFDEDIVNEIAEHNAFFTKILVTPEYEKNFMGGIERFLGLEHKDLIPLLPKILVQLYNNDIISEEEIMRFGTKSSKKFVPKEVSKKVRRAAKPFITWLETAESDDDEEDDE
Sequence of eIF1-TAMRA (S. cerevisiae) (P32911 whole entry): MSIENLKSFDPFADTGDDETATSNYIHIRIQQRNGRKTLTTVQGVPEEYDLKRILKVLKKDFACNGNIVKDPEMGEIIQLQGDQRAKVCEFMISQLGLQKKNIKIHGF

For eIF3 (yeast multisubunit complex), the Kd in assay [1] worked out at 115 nM; with eIF4B-Fl (S. cerevisiae), 380 nM; in assay [2], 15 nM.

B1: eIF4A-TAMRA (enzyme, S. cerevisiae, UniProt P10081 1-395, looked up)
chain: MSEGITDIEESQIQTNYDKVVYKFDDMELDENLLRGVFGYGFEEPSAIQQRAIMPIIEGHDVLAQAQSGTGKTGTFSIAALQRIDTSVKAPQALMLAPTRELALQIQKVVMALAFHMDIKVHACIGGTSFVEDAEGLRDAQIVVGTPGRVFDNIQRRRFRTDKIKMFILDEADEMLSSGFKEQIYQIFTLLPPTTQVVLLSATMPNDVLEVTTKFMRNPVRILVKKDELTLEGIKQFYVNVEEEEYKYECLTDLYDSISVTQAVIFCNTRRKVEELTTKLRNDKFTVSAIYSDLPQQERDTIMKEFRSGSSRILISTDLLARGIDVQQVSLVINYDLPANKENYIHRIGRGGRFGRKGVAINFVTNEDVGAMRELEKFYSTQIEELPSDIATLLN
modifications: TAMRA label, attached by expressed protein ligation
Consider B1, for which binding in assay [3] was characterised by a dissociation constant (Kd) of 200 nM. Also, the binding result in the assay with eIF4E•eIF4G complex is recorded as “binds”.

B2: eIF4E-Fl (yeast eIF4E S200C labelled with fluorescein maleimide) (natural protein, S. cerevisiae, UniProt P07260 1-213, looked up)
chain: T2 sequence (looked up) 1 with S200C
modifications: fluorescein maleimide on the introduced cysteine (S200C)
For the molecule B2, in assay [3], the Kd is less than 15 nM.

The values above are taken from paper PMC2945613 (Molecular cell, 2010).
